In US20090137002A1 (published 2009):
Blank lines part the entries; values can stand above or below the binder they belong to.

Columns and labels:
[1] = target: T1, recombinant human EphB4-Fc fusion protein (human, UniProt P54760 16-539); test: ELISA
T1 construct: extracellular domain; also called hEphB4; hu EphB4-Fc
T1 sequence (looked up): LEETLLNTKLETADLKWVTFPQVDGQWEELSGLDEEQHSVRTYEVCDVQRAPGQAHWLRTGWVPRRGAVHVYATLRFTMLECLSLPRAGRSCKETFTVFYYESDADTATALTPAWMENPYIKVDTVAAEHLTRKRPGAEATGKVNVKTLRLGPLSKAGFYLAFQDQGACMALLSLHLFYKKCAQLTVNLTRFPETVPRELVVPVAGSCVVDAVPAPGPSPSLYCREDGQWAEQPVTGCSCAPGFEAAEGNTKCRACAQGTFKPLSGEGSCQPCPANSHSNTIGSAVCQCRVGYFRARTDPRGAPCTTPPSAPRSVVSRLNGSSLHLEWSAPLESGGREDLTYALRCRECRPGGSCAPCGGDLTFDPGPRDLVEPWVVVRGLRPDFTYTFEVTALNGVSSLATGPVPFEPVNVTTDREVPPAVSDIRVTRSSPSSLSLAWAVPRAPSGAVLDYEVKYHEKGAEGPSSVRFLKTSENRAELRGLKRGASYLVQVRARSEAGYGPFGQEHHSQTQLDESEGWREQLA

[2] = target: T2, myc-tagged human EphB4 on transfected CHO cells (human, UniProt P54760 16-987); test: FACS competition on CHO-hEphB4 cells, competitor biotinylated mEphrinB2 250 ng/mL
T2 construct: whole, on cells; also called CHO-EphB4; CHO-hEphB4; not shown: myc tag
T2 sequence (looked up): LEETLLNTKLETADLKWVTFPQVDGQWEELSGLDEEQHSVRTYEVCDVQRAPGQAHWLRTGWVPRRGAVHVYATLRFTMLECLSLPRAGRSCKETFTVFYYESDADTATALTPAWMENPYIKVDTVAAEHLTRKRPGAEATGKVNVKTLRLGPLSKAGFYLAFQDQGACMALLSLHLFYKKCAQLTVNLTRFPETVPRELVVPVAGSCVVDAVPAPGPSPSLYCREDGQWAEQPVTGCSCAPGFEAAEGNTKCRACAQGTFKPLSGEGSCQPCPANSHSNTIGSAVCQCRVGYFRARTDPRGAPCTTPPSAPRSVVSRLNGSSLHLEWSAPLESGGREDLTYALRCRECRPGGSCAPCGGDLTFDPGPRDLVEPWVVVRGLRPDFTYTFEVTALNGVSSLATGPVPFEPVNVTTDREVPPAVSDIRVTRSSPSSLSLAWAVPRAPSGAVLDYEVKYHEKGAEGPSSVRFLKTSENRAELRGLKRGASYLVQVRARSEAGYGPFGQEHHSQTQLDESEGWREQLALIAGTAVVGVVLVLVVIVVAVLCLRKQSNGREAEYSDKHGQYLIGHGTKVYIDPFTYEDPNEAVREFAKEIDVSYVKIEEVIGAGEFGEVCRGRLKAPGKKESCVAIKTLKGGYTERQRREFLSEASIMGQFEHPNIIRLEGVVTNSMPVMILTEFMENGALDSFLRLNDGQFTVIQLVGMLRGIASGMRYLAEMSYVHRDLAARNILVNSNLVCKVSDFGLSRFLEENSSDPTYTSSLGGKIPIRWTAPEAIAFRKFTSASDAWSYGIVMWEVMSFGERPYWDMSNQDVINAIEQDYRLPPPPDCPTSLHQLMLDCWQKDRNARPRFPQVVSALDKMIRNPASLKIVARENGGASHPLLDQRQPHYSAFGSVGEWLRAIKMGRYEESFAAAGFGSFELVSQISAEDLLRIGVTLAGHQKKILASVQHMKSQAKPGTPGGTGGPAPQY
Protocol: CHO-hEphB4 cells were trypsinized, washed and resuspended in FACS buffer (PBS/1% BSA) containing anti-EphB4 antibody at different concentrations and incubated at 4° C. for 30 min. Cells were washed in FACS buffer and resuspended in FACS buffer containing biotinylated mEphrinB2 at 250 ng/mL and incubated at 4° C. for 1 hr. cells were washed in FACS buffer and resuspended in FACS buffer containing Streptavidin-PE and incubated at 4° C. for 30 min. After a final wash step, cell staining was analyzed in a Becton Dickinson FACS.

[3] = target: T2, myc-tagged human EphB4 on transfected …; test: FACS, Fab against EphrinB2-Fc on hEphB4-transfected cells
Protocol: (§1) IC₅₀ values were determined using recombinant antigen (murine and human EphB4) in an ELISA and on transfected cells in a FACS analysis (human EphB4 receptor).
(§2) Binding of (a fixed concentration of) the ligand EphrinB2-Fc to immobilized EphB4 receptor on an ELISA plate or on transfected cells is titrated with anti-EphB4 Fab. The IC₅₀ is determined as the amount of Fab at which the binding of EphrinB2 is inhibited by 50%.

[4] = target: T1, recombinant human EphB4-Fc fusion …; test: Biacore, EphB4-Fc on chip
Protocol: (§3) The affinity of the antibody fragments was determined using BIACORE™ analysis and cell ELISA. The Biacore chip was coated with recombinant human or murine EphB4-Fc fusion protein.

[5] = target: T3, recombinant murine EphB4-Fc fusion protein (mouse, UniProt P54761 16-539); test: Biacore, EphB4-Fc on chip
T3 construct: extracellular domain; also called mEphB4; mu EphB4; not shown: Fc part, not described
T3 sequence (looked up): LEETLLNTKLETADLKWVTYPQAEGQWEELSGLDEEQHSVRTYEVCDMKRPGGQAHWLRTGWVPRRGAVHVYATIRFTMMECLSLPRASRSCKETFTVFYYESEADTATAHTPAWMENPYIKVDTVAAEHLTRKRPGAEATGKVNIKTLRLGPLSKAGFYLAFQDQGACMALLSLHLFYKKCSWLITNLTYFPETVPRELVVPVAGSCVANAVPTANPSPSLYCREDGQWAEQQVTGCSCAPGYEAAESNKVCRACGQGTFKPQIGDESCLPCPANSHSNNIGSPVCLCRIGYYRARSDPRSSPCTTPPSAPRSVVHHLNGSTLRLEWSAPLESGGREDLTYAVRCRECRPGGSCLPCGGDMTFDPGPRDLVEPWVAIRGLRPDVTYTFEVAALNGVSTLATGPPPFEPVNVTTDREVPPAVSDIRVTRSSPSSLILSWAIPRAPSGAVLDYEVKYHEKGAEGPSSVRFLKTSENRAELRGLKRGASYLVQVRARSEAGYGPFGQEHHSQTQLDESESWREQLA
Protocol: as §3

[6] = target: T3, recombinant murine EphB4-Fc fusion …; test: competition ELISA, Fab against EphrinB2-Fc on immobilized murine EphB4
Protocol: as §1, §2

- ELISA signal above background [1]: 10 fold
- IC50 (read off the curve) [2]: ~2 µg/mL
- IC50 [3]: 2.8 µg/mL
- Kd [4]: 13 nM
- Kd [5]: 43 nM
- IC50 [6]: 22 µg/mL
B1: MOR03639 Fab (Fab, V domains shown)
VH: QVQLVESGGGLVQPGGSLRLSCAASGFTFSNYYLHWVRQAPGKGLEWVSGISYSGSSTYYADSVKGRFTISRDNSKNTLYLQMNSLRAEDTAVYYCARFYQRRQIPHGYDVWGQGTLVTVSS
VL: DIELTQPPSVSVAPGQTARISCSGDNIGDYYVHWYQQKPGQAPVLVIYRDSNRPSGIPERFSGSNSGNTATLTISGTQAEDEADYYCGSYDMPFGGTVFGGGTKLTVLG
notes: Monomeric HuCAL Fab (VH3, lambda3), purified, MH-tagged

- ELISA signal above background [1]: 10 fold
- IC50 (read off the curve) [2]: ~0.4 µg/mL
- IC50 [3]: 2.1 µg/mL
- Kd [4]: 1.8 nM
- Kd [5]: 4 nM
- IC50 [6]: 117 µg/mL
B2: MOR03640 Fab (Fab, V domains shown)
VH: QVQLVESGGGLVQPGGSLRLSCAASGFTFNNSWMSWVRQAPGKGLEWVSNITSSSSMTHYADSVKGRFTISRDNSKNTLYLQMNSLRAEDTAVYYCARKGMSFYNNKYAKSMFDLWGQGTLVTVSS
VL: DIELTQPPSVSVAPGQTARISCSGDNLGKKYVHWYQQKPGQAPVLVIYYDSKRPSGIPERFSGSNSGNTATLTISGTQAEDEADYYCSAWTTTMMHIVFGGGTKLTVLG
notes: Monomeric HuCAL Fab, purified, MH-tagged

- ELISA signal above background [1]: 10 fold
- IC50 (read off the curve) [2]: ~1 µg/mL
- IC50 [3]: 4.4 µg/mL
- Kd [4]: 35 nM
- Kd [5]: 151 nM
- IC50 [6]: 24 µg/mL
B3: MOR03641 Fab (Fab, V domains shown)
VH: QVQLVQSGAEVKKPGSSVKVSCKASGGTFSTYAISWVRQAPGQGLEWMGRIIPIFGTANYAQKFQGRVTITADESTSTAYMELSSLRSEDTAVYYCARSSYTILTTYYNYNAMDNWGQGTLVTVSS
VL: DIQMTQSPSSLSASVGDRVTITCRASQNINNFLNWYQQKPGKAPKLLIYGSSILQSGVPSRFSGSGSGTDFTLTISSLQPEDFAVYYCHQVSDTSDTFGQGTKVEIKR
notes: Monomeric HuCAL Fab (VH1A, kappa1), purified, MH-tagged; also called 3541 [sic]
